Common to all, as to test: ITC
For assay [1], the target named is Xenopus laevis core histone H2B (X. laevis, UniProt P02281 1-126).
The target in assay [2] is Chicken erythrocyte H3–H4 histone dimer (chicken, UniProt P84229 1-136; P62801 1-103).
Assay [3] deals with Xenopus laevis core histone H3 (X. laevis, UniProt P84233 1-136).

Results on one molecule are retold here after publication PMC5389710 (Nucleic Acids Research, 2016).

B1: Arabidopsis thaliana NAP1-related protein 1 (NRP1) (natural protein)
chain: MVADKSKKSKIEEKGEEENLEQIDAELVLSIEKLQEIQDDLEKINEKASDEVLEVEQKYNVIRKPVYDKRNEVIQSIPGFWMTAFLSHPALGDLLTEEDQKIFKYLNSLEVEDAKDVKSGYSITFHFTSNPFFEDAKLTKTFTFLEEGTTKITATPIKWKEGKGLPNGVNHDDKKGNKRALPEESFFTWFTDAQHKEDAGDEIHDEVADIIKEDLWSNPLTYFNNDADEEDFDGDDDGDEEGEEDDDDEEEEDGEE
With B1, the dissociation constant Kd in assay [1] amounted to 9.6 µM; in assay [2], 0.4 µM; in assay [3], 20 µM.
